Results on 27 molecules are retold here after patent publication US20260015420A1 (CENTESSA PHARMACEUTICALS UK, published 2026).

Residue numbers refer to the chain shown, from its start. Names and notes keep the numbering of the source.

T1: cynomolgus monkey CD47-Fc (cynomolgus monkey, UniProt Q08722 19-139 (human entry), limits assumed)
T1 construct: also called cCD47; cyno CD47-Fc; not shown: Fc part
T1 chain: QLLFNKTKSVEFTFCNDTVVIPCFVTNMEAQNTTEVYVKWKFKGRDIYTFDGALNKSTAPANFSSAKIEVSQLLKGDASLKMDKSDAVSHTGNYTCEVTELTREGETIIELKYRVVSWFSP

T2: Cyno CD47 (Biacore steady state analysis) (cynomolgus monkey, UniProt Q08722 19-139 (human entry), limits assumed)
T2 construct: The construct on the Biacore chip is not described (possibly CD47-Fc)
T2 chain: T1 chain

T3: cynomolgus monkey CD47 on cyno CD47-transfected CHO-K1 cells (cynomolgus monkey, UniProt Q08722 19-323 (human entry))
T3 construct: CHO-K1 cells stably transfected with cyno CD47 full-length cDNA; also called cyno CD47+ cells; cyno CD47+CHO-K1
T3 chain: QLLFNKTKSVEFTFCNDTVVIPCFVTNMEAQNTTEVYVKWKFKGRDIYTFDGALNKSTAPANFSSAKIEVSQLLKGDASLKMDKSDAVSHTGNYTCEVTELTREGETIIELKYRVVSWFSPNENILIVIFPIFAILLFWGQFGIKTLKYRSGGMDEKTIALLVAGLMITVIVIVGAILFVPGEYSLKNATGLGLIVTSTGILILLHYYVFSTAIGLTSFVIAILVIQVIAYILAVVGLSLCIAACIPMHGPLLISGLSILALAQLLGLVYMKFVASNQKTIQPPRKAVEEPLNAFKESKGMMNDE

B1: F-E5, human IgG1null (antibody, V domains shown)
VH: EVQLVQSGAEVKKPGESLKISCKGSGYSFTNYNIHWVRQMPGKGLEWMGTIYPGNSDTSYNPKFQGQVTISADKSISTAYLQWSSLKASDTAMYYCARGGKRAMDYWGQGTLVTVSS
VL: DIVMTQSPLSLPVTPGEPASISCRSSQSLLHSNGNTYLGWYLQKPGQSPQLLIYKGSNRFSGVPDRFSGSGSGTDFTLKISRVEAEDVGVYYCMQASQVPYTFGQGTKLEIK
notes: framework limits derived from the Unified CDR definitions; IgG1null; also called Clone F-E5
B2: D-C12, human IgG1null (antibody, V domains shown)
VH: B1 VH with S59R, K101F
VL: B1 VL with A96G, Q98H
notes: IgG1null; also called Clone D-C12
B3: F-G3, human IgG1null (antibody, V domains shown)
VH: B1 VH with P62H, K101N, M104E
VL: B1 VL
notes: IgG1null; also called clone F-G3
B4: E-C5, human IgG1null (antibody, V domains shown)
VH: B1 VH with N55D, K101Y, M104Q
VL: B1 VL with Q98H
notes: IgG1null; also called Clone E-C5
B5: C-D5, human IgG1null (antibody, V domains shown)
VH: B1 VH with N55D, S59R, K101I
VL: B1 VL with G34Y, M94F, A96G, V99T
notes: IgG1null; also called Clone C-D5
B6: E-D6, human IgG1null (antibody, V domains shown)
VH: B1 VH with N55D, K101Y, M104E
VL: B1 VL with A96G, Q98H
notes: IgG1null; also called Clone E-D6
B7: B-A6, human IgG1null (antibody, V domains shown)
VH: B1 VH with N55D, S59R, P62Q, K101I
VL: B1 VL with M94F, A96G, Q98H, T102I
notes: IgG1null; also called Clone B-A6
B8: E-A1, human IgG1null (antibody, V domains shown)
VH: B1 VH with N55D, S59R, K101Y, M104E
VL: B1 VL with A96G, Q98H
notes: IgG1null; also called Clone E-A1
B9: B-D2, human IgG1null (antibody, V domains shown)
VH: B1 VH with S59R, K63S, K101E
VL: B1 VL with M94F
notes: IgG1null; also called Clone B-D2
B10: D6 IgG, human IgG1null (antibody, V domains shown)
VH: B1 VH with K63S, K101V
VL: B1 VL
notes: The text prints both D6 and D-A6 for what reads as the same clone; IgG1null; also called D-A6 IgG; Clone D6
B11: A-H3, human IgG1null (antibody, V domains shown)
VH: B1 VH with K63S, K101V
VL: B1 VL with N33K
notes: IgG1null; also called Clone A-H3
B12: VH1.8/VL1.5, human IgG1null (antibody, V domains shown)
VH: QVQLVQSGAEVKKPGASVKVSCKASGYTFTNYAMHWVRQAPGQRLEWMGTIYPGNDDTKYNQKFQGRVTITADTSASTAYMELSSLRSEDTAVYYCARGGFRAMDYWGQGTLVTVSS
VL: B1 VL with G34A, N35Y, T36N, M94F, Q98H
notes: IgG1null; also called Clone VH1.8/VL1.5
B13: VH1.8/VL1.4, human IgG1null (antibody, V domains shown)
VH: B12 VH
VL: B1 VL with G34A, N35Y, T36N, M94F
notes: IgG1null; also called Clone VH1.8/VL1.4
B14: VH1.8/VL1.2, human IgG1null (antibody, V domains shown)
VH: B12 VH
VL: B1 VL with M94F
notes: IgG1null; also called Clone VH1.8/VL1.2
B15: VH1.8/VL1.1, human IgG1null (antibody, V domains shown)
VH: B12 VH
VL: B1 VL with M94F, Q98H
notes: IgG1null (L234A/L235A/G237A); also called Clone VH1.8/VL1.1
B16: VH1.8/VL1.6, human IgG1null (antibody, V domains shown)
VH: B12 VH
VL: B1 VL with G34A, M94F, Q98H
notes: IgG1null; also called Clone VH1.8/VL1.6
B17: VH1.8/VL1.3, human IgG1null (antibody, V domains shown)
VH: B12 VH
VL: B1 VL with G34A, M94F
notes: IgG1null; also called Clone VH1.8/VL1.3
B18: FAB VH1.8/1.6DI (Fab, V domains shown)
VH: B12 VH
VL: B1 VL with G34A, L52A, V88A, M94F, Q98H
notes: Fab expressed as soluble monomer; VL carries the two deimmunising alanine substitutions; also called VH1.8/VL1.6-DI Fab
B19: FAB VH1.8/1.1 (Fab, V domains shown)
VH: B12 VH
VL: B1 VL with M94F, Q98H
notes: Fab expressed as soluble monomer; also called VH1.8/VL1.1 Fab
B20: FAB VH1.8/1.6 (Fab, V domains shown)
VH: B12 VH
VL: B1 VL with G34A, M94F, Q98H
notes: Fab expressed as soluble monomer; also called VH1.8/VL1.6 Fab
B21: VH1.7/VL1.4, human IgG1null (antibody, V domains shown)
VH: B12 VH with A33N, M34I, K59S, N61S
VL: B1 VL with G34A, N35Y, T36N, M94F
notes: VH assembled as for m35; IgG1null
B22: VH1.7/VL1.5, human IgG1null (antibody, V domains shown)
VH: B12 VH with A33N, M34I, K59S, N61S
VL: B1 VL with G34A, N35Y, T36N, M94F, Q98H
notes: VH assembled as for m35; IgG1null; also called Clone VH1.7/VL1.5
B23: VH1.12/VL1.8, human IgG1null (antibody, V domains shown)
VH: B12 VH with D57N
VL: B1 VL with G34A, N35Y, T36N, Q98H
notes: IgG1null; also called VH1.12/VL8
B24: VH1.1/VL1.6, human IgG1null (antibody, V domains shown)
VH: B12 VH with F101Y, M104E
VL: B1 VL with G34A, M94F, Q98H
notes: cf. claim 50); IgG1null; also called Clone VH1.1/VL1.6
B25: VH1.6/VL1.6, human IgG1null (antibody, V domains shown)
VH: B12 VH with K59S, N61S, F101Y, M104E
VL: B1 VL with G34A, M94F, Q98H
notes: as for B21
B26: VH1.9/VL1.6, human IgG1null (antibody, V domains shown)
VH: B12 VH with N61S, F101Y, M104E
VL: B1 VL with G34A, M94F, Q98H
notes: IgG1null
B27: VH1.7/VL1.6, human IgG1null (antibody, V domains shown)
VH: B12 VH with A33N, M34I, K59S, N61S
VL: B1 VL with G34A, M94F, Q98H
notes: VH assembled as for m35; IgG1null; also called Clone VH1.7/VL1.6

The first test deals with T1, cynomolgus monkey CD47-Fc. Kind of test: direct ELISA, coated cyno CD47-Fc, OD450. (An ELISA detects its analyte on a solid surface through an enzyme-linked reagent.)
Take B1: the binding result was “binds”.

Turning to B2, the binding result was “binds”.

Turning to B3, the binding result is given as “binds”.

Regarding B4, the binding result is “binds”.

In the case of B5, the binding result is “binds”.

Turning to B6, the binding result is listed as “binds”.

Turning to B7, the binding result is “binds”.

As for B8, the binding result is given as “binds”.

In the case of B9, the binding result is “binds”.

On to B10, for which the binding result is on record as “binds”.

For B11, the binding result is “binds”.

The next test addresses T4, human CD47-Fc (human, UniProt Q08722 19-139).
T4 construct: also called hCD47; human CD47-Fc protein; not shown: Fc part
Kind of test: direct ELISA, coated human CD47-Fc, OD450.
As for B1, the EC50 (read off the curve) – broadly, the concentration that produces a half-maximal response – was about 0.06 µg/mL.

Take B2: the binding result is given as “binds”.

With B3, the binding result is “binds”.

For the molecule B4, the binding result is given as “binds”.

As for B5, the binding result is reported as “binds”.

Regarding B6, the binding result was “binds”.

Consider B7, for which the binding result is reported as “binds”.

For B9, the binding result is reported as “binds”.

In the case of B10, the “EC50 (read off the curve)” value was about 0.09 µg/mL.

As to B11, the binding result is given as “binds”.

For the next test, the target named is T4, human CD47-Fc. Kind of test: direct ELISA, coated human CD47-Fc, OD450. The source holds these as a separate data set.
Target sequence in this assay (Q08722 19-139 limits assumed): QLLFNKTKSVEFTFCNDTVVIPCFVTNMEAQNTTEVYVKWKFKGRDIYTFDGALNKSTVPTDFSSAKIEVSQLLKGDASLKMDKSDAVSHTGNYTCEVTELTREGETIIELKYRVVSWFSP
B12: the “EC50 (read off the curve)” value was about 0.06 µg/mL.

In the case of B13, the “EC50 (read off the curve)” value is about 0.06 µg/mL.

In the case of B14, the “EC50 (read off the curve)” value is about 0.06 µg/mL.

As for B15, the “EC50 (read off the curve)” value is about 0.06 µg/mL.

With B16, the “EC50 (read off the curve)” value was about 0.06 µg/mL.

As for B17, the 50% effective concentration (EC50 (read off the curve)) is about 0.06 µg/mL.

Another test addresses T2, Cyno CD47 (Biacore steady state …). The test can be described thus: Biacore SPR, steady state affinity, monomeric Fab.
As for B18, the Kd – broadly, the equilibrium constant for the complex coming apart – worked out at 27.8 nM.

In turn, B19 yielded a Kd of 17.9 nM.

With B20, binding was characterised by a dissociation constant (Kd) of 25.9 nM.

A further test concerns the target T3, cynomolgus monkey CD47 on cyno …. Kind of test: flow cytometry, CHO-K1 cells transfected with cyno CD47, MFI.
As to B12, the binding result is “binds”.

For B13, the binding result was “binds”.

For B14, the binding result is on record as “binds”.

For B15, the binding result is “binds”.

On to B16, for which the binding result is “binds”.

Take B17: the binding result is given as “binds”.

Another test deals with T4, human CD47-Fc. The test can be described thus: HTRF competition with labelled h5F9G4 IgG1 (m11) for human CD47-Fc, 665/615 ratio. (In general: TR-FRET usually uses a lanthanide donor and a delayed reading to cut background.)
For the molecule B1, the “IC50 (read off the curve)” value was about 4 µg/mL.

With B8, the “IC50 (read off the curve)” value was about 1 µg/mL.

The next test concerns the target T4, human CD47-Fc. The test is described as above. This is another data set of the same source.
Regarding B10, the “IC50 (read off the curve)” value was about 4 µg/mL.

Another test has as its target T4, human CD47-Fc. Kind of test: HTRF epitope competition; competitor Tb-labelled h5F9G4 IgG1 on biotinylated human CD47-Fc.
Target sequence in this assay (Q08722 19-139 limits assumed): as above
Turning to B12, the IC50 – broadly, the concentration at which inhibition is half-maximal – was 0.911 µg/mL.

Take B21: the IC50 is 22.6 µg/mL.

The molecule B22 had an IC50 of 9.53 µg/mL.

For the molecule B23, the IC50 amounted to 16.3 µg/mL.

The molecule B13 came in with an IC50 of 2.94 µg/mL.

B14: the IC50 is 0.586 µg/mL.

For B15, the concentration for half-maximal inhibition (IC50) is 0.459 µg/mL.

Turning to B16, the IC50 came to 0.56 µg/mL.

The molecule B17 returned an IC50 of 0.928 µg/mL.

In turn, B24 displayed an IC50 of 6.96 µg/mL.

Molecule B25 returned an IC50 of 14 µg/mL.

B26 showed an IC50 of 11.1 µg/mL.

B27 displayed an IC50 of 4.64 µg/mL.

Another test has as its target T4, human CD47-Fc. The test can be described thus: competition ELISA: human CD47-Fc binding to plate-bound human SIRPa-Fc, % binding.
Target sequence in this assay (Q08722 19-139 limits assumed): as above
Regarding B12, the “IC50 (read off the curve)” value is about 0.4 µg/mL.

Take B13: the “IC50 (read off the curve)” value is about 2 µg/mL.

Consider B16, for which the “IC50 (read off the curve)” value is about 0.3 µg/mL.

Consider B17, for which the “IC50 (read off the curve)” value was about 0.4 µg/mL.
